Substrate in this data set: NC(=O)c1ccc[n+]([C@@H]2O[C@H](COP(=O)(O)OP(=O)(O)OC[C@H]3O[C@@H](n4cnc5c(N)ncnc54)[C@@H]4OP(=O)(O)O[C@@H]43)[C@@H](O)[C@H]2O)c1
Nature of the data set: purified protein. The conditions noted are these: 100 mM MES pH 6.0, 3 mM MgCl2, 5 mM glucose-6-phosphate, 25 °C, CPDase site.

The results in this text go back to publication PMC5434554, “Structural similarities and functional differences clarify evolutionary relationships between tRNA healing enzymes and the myelin enzyme CNPase” (BMC Biochemistry, 2017).

B1: ScTrl1 CPDase (Saccharomyces cerevisiae S288C) (protein)
chain: GQADSSLTNAKQILNEIHKAYPILVPEIPKDDEIETAFRRSLDYKPTVRKIVGKGNNNQQKTPKLIKPTYISAKIENYDEIIELVKRCIASDAELTEKFKHLLASGKVQKELHITLGHVMSSREKEAKKLWKSYCNRYTDQITEYNNNRIENAQGSGNNQNTQVKTTDKLNFRLEKLCWDEKIIAIVVELSKDKDGCIIDENNEKIKGLCCQNKIPHITLCKLESGVKAVYSNVLCEKVESAEVDENIKVVKLDNSKEFVGSVYLNF
Consider B1, for which the Km was 237 ± 27 µM, the kcat came out at 275 s⁻¹ and the kcat/Km is 1.16e+06 M⁻¹ s⁻¹.

B2: ScTrl1 PNK/CPDase (Saccharomyces cerevisiae S288C) (protein)
chain: RTKFLIFPISVIGCGKTTTSQTLVNLFPDSWGHIQNDDITGKDKSQLMKKSLELLSKKEIKCVIVDRNNHQFRERKQLFEWLNELKEDYLVYDTNIKVIGVSFAPYDKLSEIRDITLQRVIKRGNNHQSIKWDELGEKKVVGIMNGFLKRYQPVNLDKSPDNMFDLMIELDFGQADSSLTNAKQILNEIHKAYPILVPEIPKDDEIETAFRRSLDYKPTVRKIVGKGNNNQQKTPKLIKPTYISAKIENYDEIIELVKRCIASDAELTEKFKHLLASGKVQKELHITLGHVMSSREKEAKKLWKSYCNRYTDQITEYNNNRIENAQGSGNNQNTQVKTTDKLNFRLEKLCWDEKIIAIVVELSKDKDGCIIDENNEKIKGLCCQNKIPHITLCKLESGVKAVYSNVLCEKVESAEVDENIKVVKLDNSKEFVGSVYLNF
In the case of B2, the Km was 420 ± 35 µM, the kcat is 317 s⁻¹ and the kcat/Km worked out at 750000 M⁻¹ s⁻¹.

A word on the Km: it is the concentration of substrate that gives half-maximal velocity. By kcat is commonly meant the maximal rate divided by the concentration of active sites. What is called kcat/Km is the second-order rate constant that governs catalysis at low substrate concentration.
